Experiment in all cases: cell staining of β8 amino acid swap constructs (175-180)
In assay [1] the target is T1, human integrin β8 swap construct RKMAFY (SEQ ID NO:130) (human, UniProt P26012 43-769).
T1 sequence: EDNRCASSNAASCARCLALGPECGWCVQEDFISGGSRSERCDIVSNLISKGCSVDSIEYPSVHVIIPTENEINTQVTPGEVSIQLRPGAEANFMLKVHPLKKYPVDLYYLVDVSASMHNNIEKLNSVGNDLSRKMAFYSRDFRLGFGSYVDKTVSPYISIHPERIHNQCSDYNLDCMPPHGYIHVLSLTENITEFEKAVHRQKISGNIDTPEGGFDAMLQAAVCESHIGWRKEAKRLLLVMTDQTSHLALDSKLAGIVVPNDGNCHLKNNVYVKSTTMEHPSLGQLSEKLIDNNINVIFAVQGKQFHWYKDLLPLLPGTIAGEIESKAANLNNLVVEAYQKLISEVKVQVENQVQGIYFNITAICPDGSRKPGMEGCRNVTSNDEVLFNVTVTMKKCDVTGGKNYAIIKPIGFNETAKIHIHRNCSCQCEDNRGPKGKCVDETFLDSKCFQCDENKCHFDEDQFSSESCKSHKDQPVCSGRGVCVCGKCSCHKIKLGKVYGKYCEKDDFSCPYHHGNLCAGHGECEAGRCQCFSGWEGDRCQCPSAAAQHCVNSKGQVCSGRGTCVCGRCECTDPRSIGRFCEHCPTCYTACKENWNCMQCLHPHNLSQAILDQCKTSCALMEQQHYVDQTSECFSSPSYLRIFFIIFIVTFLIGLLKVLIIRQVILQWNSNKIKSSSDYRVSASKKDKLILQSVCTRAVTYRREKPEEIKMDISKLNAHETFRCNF

In assay [2] the target is T2, human integrin αβ8 (αvβ8) expressed on cells (human, UniProt P06756 31-1048).
T2 construct: whole, on cells; β8 transfected into or endogenous on cells, unfixed or formalin fixed; also called human integrin β8; ITGB8
T2 sequence (P06756 31-1048): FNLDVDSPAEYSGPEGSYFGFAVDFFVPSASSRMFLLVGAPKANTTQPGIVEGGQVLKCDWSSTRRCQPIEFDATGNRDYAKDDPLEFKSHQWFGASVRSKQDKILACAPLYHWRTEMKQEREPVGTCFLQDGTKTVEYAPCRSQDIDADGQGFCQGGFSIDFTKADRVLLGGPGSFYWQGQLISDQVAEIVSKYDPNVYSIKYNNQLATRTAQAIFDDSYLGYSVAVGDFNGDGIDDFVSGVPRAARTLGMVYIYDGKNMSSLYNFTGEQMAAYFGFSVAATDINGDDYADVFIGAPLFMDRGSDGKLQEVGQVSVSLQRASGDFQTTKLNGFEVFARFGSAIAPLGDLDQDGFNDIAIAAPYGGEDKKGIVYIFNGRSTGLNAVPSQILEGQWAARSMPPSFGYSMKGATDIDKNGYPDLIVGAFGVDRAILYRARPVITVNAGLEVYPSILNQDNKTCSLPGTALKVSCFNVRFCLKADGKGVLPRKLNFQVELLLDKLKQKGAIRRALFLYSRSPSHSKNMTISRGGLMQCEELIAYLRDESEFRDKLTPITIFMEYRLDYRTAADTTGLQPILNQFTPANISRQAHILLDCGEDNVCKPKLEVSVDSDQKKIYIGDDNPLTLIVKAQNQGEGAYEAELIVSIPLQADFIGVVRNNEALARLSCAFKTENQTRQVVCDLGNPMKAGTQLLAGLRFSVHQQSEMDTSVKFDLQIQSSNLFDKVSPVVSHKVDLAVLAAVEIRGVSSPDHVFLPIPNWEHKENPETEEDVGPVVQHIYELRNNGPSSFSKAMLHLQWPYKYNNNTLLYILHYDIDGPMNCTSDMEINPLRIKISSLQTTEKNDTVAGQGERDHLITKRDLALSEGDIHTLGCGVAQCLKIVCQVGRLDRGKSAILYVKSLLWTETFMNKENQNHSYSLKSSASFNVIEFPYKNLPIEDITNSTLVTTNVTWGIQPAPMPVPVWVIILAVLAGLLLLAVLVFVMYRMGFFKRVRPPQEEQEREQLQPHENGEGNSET

The target in assay [3] is T3, human integrin β8 swap construct KKMAFF (SEQ ID NO:133) (human, UniProt P26012 43-769).
T3 sequence: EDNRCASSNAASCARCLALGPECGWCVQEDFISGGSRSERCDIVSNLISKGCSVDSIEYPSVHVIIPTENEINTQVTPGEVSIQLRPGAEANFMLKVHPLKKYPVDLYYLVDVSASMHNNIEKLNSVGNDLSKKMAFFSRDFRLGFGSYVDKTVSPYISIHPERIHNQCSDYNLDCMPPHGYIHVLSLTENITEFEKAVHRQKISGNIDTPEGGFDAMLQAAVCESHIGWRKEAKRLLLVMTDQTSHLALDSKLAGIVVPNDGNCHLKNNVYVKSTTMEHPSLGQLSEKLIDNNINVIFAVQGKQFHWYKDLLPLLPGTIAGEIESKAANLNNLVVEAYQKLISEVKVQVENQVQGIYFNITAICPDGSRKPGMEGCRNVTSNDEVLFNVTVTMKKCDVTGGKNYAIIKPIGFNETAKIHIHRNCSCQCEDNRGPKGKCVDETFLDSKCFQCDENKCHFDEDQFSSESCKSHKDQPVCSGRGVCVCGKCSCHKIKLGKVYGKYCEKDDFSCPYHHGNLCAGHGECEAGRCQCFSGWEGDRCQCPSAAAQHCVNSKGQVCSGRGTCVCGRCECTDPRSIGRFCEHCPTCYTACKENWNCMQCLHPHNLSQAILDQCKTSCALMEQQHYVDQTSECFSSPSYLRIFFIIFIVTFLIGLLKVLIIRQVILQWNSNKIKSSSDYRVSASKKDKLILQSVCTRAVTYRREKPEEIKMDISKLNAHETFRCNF

The target in assay [4] is T4, human integrin β8 swap construct RKMALF (SEQ ID NO:134) (human, UniProt P26012 43-769).
T4 sequence: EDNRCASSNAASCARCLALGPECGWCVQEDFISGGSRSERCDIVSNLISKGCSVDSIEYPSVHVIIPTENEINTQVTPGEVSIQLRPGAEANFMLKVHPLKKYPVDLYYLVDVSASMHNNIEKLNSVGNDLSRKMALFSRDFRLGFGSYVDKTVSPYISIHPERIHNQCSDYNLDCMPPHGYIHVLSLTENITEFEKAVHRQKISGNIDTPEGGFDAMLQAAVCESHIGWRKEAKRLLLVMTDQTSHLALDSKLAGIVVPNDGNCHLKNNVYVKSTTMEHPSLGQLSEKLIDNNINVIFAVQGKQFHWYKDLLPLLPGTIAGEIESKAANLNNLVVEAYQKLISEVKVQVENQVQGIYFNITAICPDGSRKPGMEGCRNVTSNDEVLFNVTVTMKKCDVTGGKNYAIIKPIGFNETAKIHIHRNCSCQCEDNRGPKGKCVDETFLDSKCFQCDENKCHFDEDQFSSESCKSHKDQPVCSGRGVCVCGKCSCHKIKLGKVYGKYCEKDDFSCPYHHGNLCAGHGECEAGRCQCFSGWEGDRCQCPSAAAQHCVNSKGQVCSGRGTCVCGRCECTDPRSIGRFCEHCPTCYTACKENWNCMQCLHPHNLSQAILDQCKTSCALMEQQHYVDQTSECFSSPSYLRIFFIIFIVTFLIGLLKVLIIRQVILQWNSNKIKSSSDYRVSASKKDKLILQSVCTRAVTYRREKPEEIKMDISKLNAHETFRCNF

B1: 14E5 antibody (antibody, V domains shown)
VH: EVQLQQSGAELMKPGASVKISCKATGYTFSTYWIEWIKQRPGHGLEWIGHILPGSVITNYNEKFKGKAAITADTSSNTSYMQLSSLTSEDSAVYYCARWGWDSYWGQGTLVTVSS
VL: DIEMTQSPSSLSASLGDRVTISCSTSQDISSSLNWYQQKPDGTVTLLIYYTSNLHSGVPSRFSGSGSGTDYSLTISNLEPEDIATYYCQQYSKLPYTFGGGTKLEIKR
notes: Mouse hybridoma antibody; also called hybridoma clone 14E5
Regarding B1, the “% positive” value in assay [1] was found to be 6%; in assay [2] it was 112%; in assay [3], 9%; in assay [4], 150%.

B2: 11E8 antibody (antibody, V domains shown)
VH: EVQLQQSGPELMKTGASVKISCKATGYTFSSYWIEWVKQRPGHGLEWIGDILPGSGTTNYNEKFKGRATVTADRSSNTAYMQLSSLTYGDSAVYYCATWGWDTYWDQGTSVTVSS
VL: DIVMTQSPSSLSASLGDRVTISCSASQGISNYLNWYQQKPDGTVKLLIYYTSSLHSGVPSRFSGSGSGTDYSLTISNLEPEDIATYYCQQYSNLPYTFGGGTKLEIKR
notes: Mouse hybridoma antibody
Take B2: the “% positive” value in assay [1] turned out to be 108%; in assay [2], 97%; in assay [3], 115%; in assay [4] it was 125%.

B3: 37E1B5 antibody (antibody, V domains shown)
VH: EVQLVESGGGLVQPGGSLNLSCAVSGFVFSRYWMSWVRQAPGKGLEWIGEINPDSSTINYTSSLKDKFIISRDNAKNTLYLQMNKVRSEDTALYYCACLITTEDYWGQGTSVTVSS
VL: QIVLTQSPSSMYASLGERVTIPCKASQDINSYLSWFQQKPGKSPKTLIYYANRLVDGVPSRFSGSGSGQDYSLTISSLEYEDMGIYYCLQYDEFPYTFGGGTKLEIK
For B3, the “% positive” value was 89% in assay [1], 108% in assay [2], 116% in assay [3] and 131% in assay [4].

Source of the values: US20140271478A1 (University of California, published 2014).
